Consider one substance from publication PMC2577619.

The assay deals with HIV-1 BaL envelope glycoprotein gp120 (head of the virion Env spike) (HIV-1 BaL). In words: cryo-EM structure; cryoelectron tomography of vitrified AT-2-treated HIV-1 BaL virions in PBS; 300 kV, pixel 5.56 A; spike subvolumes (2,070 kept) aligned, classified into eight classes and averaged with missing-wedge compensation, no symmetry imposed; head and leg regions also aligned and classified separately.

By stoichiometry N is commonly meant the number of molecules, sites or subunits per partner or assembly. The substance “HIV-1 BaL envelope glycoprotein gp120 (head of the virion Env spike) (natural protein)” came in with a stoichiometry N of 3.
